Where a chain is given by its changes, count along the chain named. Names and notes keep the numbering of the source.
B1: YAV: 9° N polymerase (exo-) mutant, motif A region YAV, also A485L; SEQ ID NO: 22 (protein)
chain: MILDTDYITENGKPVIRVFKKENGEFKIEYDRTFEPYFYALLKDDSAIEDVKKVTAKRHGTVVKVKRAEKVQKKFLGRPIEVWKLYFNHPQDVPAIRDRIRAHPAVVDIYEYDIPFAKRYLIDKGLIPMEGDEELTMLAFAIATLYHEGEEFGTGPILMISYADGSEARVITWKKIDLPYVDVVSTEKEMIKRFLRVVREKDPDVLITYNGDNFDFAYLKKRCEELGIKFTLGRDGSEPKIQRMGDRFAVEVKGRIHFDLYPVIRRTINLPTYTLEAVYEAVFGKPKEKVYAEEIAQAWESGEGLERVARYSMEDAKVTYELGREFFPMEAQLSRLIGQSLWDVSRSSTGNLVEWFLLRKAYKRNELAPNKPDERELARRRGGYAGGYVKEPERGLWDNIVYLDFRSYAVSIIITHNVSPDTLNREGCKEYDVAPEVGHKFCKDFPGFIPSLLGDLLEERQKIKRKMKATVDPLEKKLLDYRQRLIKILANSFYGYYGYAKARWYCKECAESVTAWGREYIEMVIRELEEKFGFKVLYADTDGLHATIPGADAETVKKKAKEFLKYINPKLPGLLELEYEGFYVRGFFVTKKKYAVIDEEGKITTRGLEIVRRDWSEIAKETQARVLEAILKHGDVEEAVRIVKEVTEKLSKYEVPPEKLVIHEQITRDLRDYKATGPHVAVAKRLAARGVKIRPGTVISYIVLKGSGRIGDRAIPADEFDPTKHRYDAEYYIENQVLPAVERILKAFGYRKEDLRYQKTKQVGLGAWLKVKGKK
modifications: 9oN polymerase variant (exo-) with L408Y/Y409A/P410V mutations
B2: YAS: 9° N polymerase mutant, motif A region YAS, also A485L; SEQ ID NO: 20 (protein)
chain: B1 chain with V410S
modifications: 9oN polymerase variant (exo-) with L408Y/Y409A/P410S mutations
B3: VAL (ED polymerase): 9° N DM derivative with L408V; V409A; P410L (motif A VAL) plus A485L; SEQ ID NO: 18 (protein)
chain: B1 chain with Y408V, V410L
modifications: 9oN polymerase variant (exo-) with L408V/Y409A/P410L and A485L mutations
B4: CAA: 9° N DM-derived polymerase with amino acids 408-410 CAA (protein, UniProt Q56366 1-775, looked up, variant D141A E143A L408C Y409A P410A A485L)
DNA polymerase: B1 chain with Y408C, V410A
B5: 9° N DM: 9° N (-exo) Y409V/A485L double mutant control polymerase; SEQ ID NO: 15 (protein)
chain: B1 chain with Y408L, A409V, V410P
modifications: 9oN polymerase (exo-) with Y409V and A485L mutations
B6: FAP: 9° N DM-derived polymerase with amino acids 408-410 FAP (protein, UniProt Q56366 1-775, looked up, variant D141A E143A L408F Y409A A485L)
DNA polymerase: B1 chain with Y408F, V410P
B7: FAI: 9° N DM-derived polymerase with amino acids 408-410 FAI (protein, UniProt Q56366 1-775, looked up, variant D141A E143A L408F Y409A P410I A485L)
DNA polymerase: B1 chain with Y408F, V410I
B8: YST: 9° N DM-derived polymerase with amino acids 408-410 YST (protein, UniProt Q56366 1-775, looked up, variant D141A E143A L408Y Y409S P410T A485L)
DNA polymerase: B1 chain with A409S, V410T
B9: CST: 9° N DM-derived polymerase with amino acids 408-410 CST (protein, UniProt Q56366 1-775, looked up, variant D141A E143A L408C Y409S P410T A485L)
DNA polymerase: B1 chain with Y408C, A409S, V410T
B10: AAA: 9° N DM-derived polymerase with amino acids 408-410 AAA (protein, UniProt Q56366 1-775, looked up, variant D141A E143A L408A Y409A P410A A485L)
DNA polymerase: B1 chain with Y408A, V410A

Assays:
[1] = system: 3′ modified nucleotide; test: Gel-based incorporation assay of Example 2, two cycles of enzymology on bead-bound 32P-labelled DNA template; assay type: biochemical; conditions: for Time to 50% product conversion on first cycle of incorporation / Time (mins) to 50% product conversion on second cycle of enzymology: 45° C., 50 mM Tris, pH 8, 4 mM MgSO4, 0.05 (v/v) Tween, 50 μg/ml enzyme, 2 μM 3′ modified nucleotide; for Time to 50% product conversion on first cycle of incorporation: first cycle (in parentheses); for incorporation of 3′ modified nucleotide analogues compared to 9° N DM (Y409V/A485L): region A variants, conditions of Example 2
Experimental: The mutant polymerases were assessed for their ability to incorporate a 3′ blocked nucleotide analogue using a gel-based assay as described in generic form in Example 1. The rates of incorporation of the modified nucleotides were compared to purified forms of related DNA polymerases in both a single round of incorporation and through two rounds of nucleotide incorporation. The DNA template that was used for these experiments was a commercially-synthesised biotinylated oligonucleotide.
The method for two cycles of incorporation involves the binding of the DNA primer-template to streptavidin-coated beads (Dynalbeads). These are prepared as follows: • Resuspend beads in storage pot by pipetting up and down Take 20 μL beads • Wash 3×200 μL TE buffer (10 mM Tris HCl pH 7.5, 1 mM EDTA) Add 50 μL B&W buffer (5 mM Tris HCl, pH 7.5; 1M NaCl, […]) • 25 μL H2O • 25 μL of ^32P-labelled biotin DNA template (final concentration of 100 nM)
The first cycle of enzymatic incorporation is performed on these beads as follows:
Incorporation mix 1 is added to the bead pellet from above.
Reactions are incubated at 45° C. for 15 minutes
The first cycle of enzymology is then deblocked by treatment with tri(carboxyethyl) phosphine (TCEP) as follows:
Add 65 μL TCEP (100 mM) in water and incubate at 65° C. for 15 minutes
After removal of the TE buffer, a second cycle of enzymatic incorporation is then performed by the addition of incorporation mix 2, as follows:
Take 5 μL samples out at ½, 1, 2, 4, 10, 30, 60 mins and add to gel loading buffer with EDTA.
Heat all samples to 95° C. for 10 mins and load 3 μl on a 12% acrylamide gel (Sambrook and Russell, 2001).
Time (mins) to 50% product conversion on second cycle of enzymology at 45° C., 50 mM Tris, pH 8, 4 mM MgSO4, 0.05 (v/v) Tween, 50 μg/ml enzyme, and 2 μM 3′ modified nucleotide. Time to 50% product conversion on first cycle of incorporation shown in parentheses. For other mutants the time to 50% conversion on the first cycle was not measured in these experiments

[2] = system: 3′ modified nucleotide; test: Single incorporation method (single cycle of nucleotide incorporation, gel read-out); assay type: biochemical; conditions: 45° C.; for incorporation of uracil nucleotide analogues with different 3′ modifications: 3′ O-allyl, 3′ S-methyl and 3′ O-azido methyl, single cycle, FIG. 3
Experimental: In order to determine whether the modified polymerases described in the previous examples have the capability to incorporate different nucleotide analogues that bear large modifications at the 3′ position of the sugar, three different uracil nucleotide analogues (3′ O-allyl, 3′ S-methyl, and 3′ O-azido methyl) were tested for their ability to be incorporated by two different […] (9° N ED variant polymerase, and 9° N YAV variant polymerase), compared to a control polymerase (9° N DM). A single cycle of nucleotide incorporation was performed at different time intervals using a ‘single incorporation’ method described below.
1. In a clean reaction tube, mix the following components: • 100 nM ^32P-labelled duplex DNA substrate • 50 μg/ml isolated DNA polymerase • 50 mM TrisHCl, pH 8 • 0.05% Tween20 • water to 47 μL
2. incubate the mixture at 45° C.
3. Add 4 mM MgSO4 and 2 μM 3′ modified nucleotide to the reaction mixture from 2, such that the total reaction volume is 50 μL
4. at various time intervals remove 5 μL aliquots from the reaction tube and mix with 5 μL gel loading buffer (described in Example 2)
5. Heat samples and load on acrylamide gels as described in Example 2.
To determine if the DNA polymerases described in previous examples were capable of incorporating 3′ modified nucleotide derivatives of A, G, C and T bases, and also of incorporating such nucleotide derivatives further modified by different fluorescent reporter groups, a single incorporation reaction (as described in Example 3) was performed with the following 3′ O-azido methyl nucleotide derivatives: […]

Molecule	Time to 50% product conversion on first cycle of incorporation [1]	Time (mins) to 50% product conversion on second cycle of enzymology [1]	incorporation of 3′ modified nucleotide analogues compared to 9° N DM (Y409V/A485L) [1]	other results
B1	min (5 sec)	1.2 min	best incorporation rate	incorporation of uracil nucleotide analogues with different 3′ modifications ([2]; 2 μM nucleotide): incorporated efficiently; concentration of 3′ blocked nucleotide at which incorporation can be measured (as low as) ([2]; first cycle, single cycle experiment): 50 nM
B2	–	1.5 min	best incorporation rate	–
B3	min (16 sec)	5.2 min	improved incorporation	rate of incorporation of the modified nucleotides compared to the original mutant bearing changes at regions A and B (2E) [1]: enhanced rate of incorporation; incorporation of uracil nucleotide analogues with different 3′ modifications ([2]; 2 μM nucleotide): incorporated efficiently; substrate conversion ([2]; each 3′ O-azido methyl nucleotide derivative of Table IV (A, G, C, T; different dyes), 2 μM nucleotide, within 3 minutes): greater than 90%
B4	–	15 min	–	–
B5	no product conversion under these	no product conversion under these	–	–
B6	–	5.5 min	–	–
B7	–	2.2 min	–	–
B8	–	2.1 min	–	–
B9	–	19.5 min	–	–
B10	–	6.9 min	–	–
